Measurements as given in patent US20110206616A1.

Molecular target: SNAP 25 (endogenous, rat neuronal cells) (rat) (UniProt P60881)
Assay: cell-based or functional assay

Sequence of UniProt P60881 (P60881 whole entry): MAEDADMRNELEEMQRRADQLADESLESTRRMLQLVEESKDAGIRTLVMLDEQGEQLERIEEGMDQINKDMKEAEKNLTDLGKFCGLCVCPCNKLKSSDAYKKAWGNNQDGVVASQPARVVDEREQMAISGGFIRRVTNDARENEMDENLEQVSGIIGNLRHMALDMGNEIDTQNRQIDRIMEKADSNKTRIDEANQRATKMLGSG

Substance: wt BoNT/A (wild type botulinum neurotoxin serotype A) (from UniProt P0DPI1 2-1296)
- intracellular SNAP 25 cleavage (concentration of wt toxin used): 0.5 nM
